Measured values: patent US20150018283A1

Assays:
IL-8RB = IL-8RB (UniProt P25025); assay: competitive radioligand binding; 10 µM unlabelled Tat-NR2B9c; competitor labeled IL-8
[1] = target: N-type Ca channels (receptor binding screen of Example 1)
[2] = target: N-type calcium channels in cultured mouse dorsal root ganglion (DRG) neurons (Swiss mice) (UniProt O55017); assay: cell-based or functional assay

Sequence of IL-8RB (P25025 whole entry): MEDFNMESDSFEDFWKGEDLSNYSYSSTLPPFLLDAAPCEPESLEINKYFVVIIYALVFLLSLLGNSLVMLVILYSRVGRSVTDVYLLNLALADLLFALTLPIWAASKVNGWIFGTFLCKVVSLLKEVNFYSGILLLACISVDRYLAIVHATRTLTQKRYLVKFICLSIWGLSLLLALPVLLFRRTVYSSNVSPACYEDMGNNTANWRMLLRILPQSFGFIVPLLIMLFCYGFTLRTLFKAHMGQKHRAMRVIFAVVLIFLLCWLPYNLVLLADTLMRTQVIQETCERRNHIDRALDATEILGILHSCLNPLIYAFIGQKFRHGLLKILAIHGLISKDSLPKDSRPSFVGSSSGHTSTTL

Molecule	% inhibition of labeled ligand binding (IL-8RB) [%]	% inhibition of labeled ligand binding [1] [%]	Ca^2+ current shown as a percentage, peptide at 100 µM [2] [%]
Tat-NR2B9c (peptide)	80	100	–
1987 D-Tat-NR2B9c (peptide)	–	–	82
1993 F-Tat-NR2B9c (peptide)	–	–	91
1990 TAT (peptide)	–	–	57
1992 Tat-NR2B9c-AA (peptide)	–	–	74
KLSSIESDV [1991 2B9c]	–	–	94
